Source: patent EP4793287A1, “TUMOR MICROENVIRONMENT SPECIFICALLY ACTIVATED CD47 ANTIBODY” (Affinity (Shanghai) Biopharmaceutical Co., Ltd., priority 2023, dated 2025)

Columns and labels:
human CD47 antigen = human CD47 antigen (Homo sapiens, UniProt Q08722); assay: Affinity measurement by SPR (BIAcore T200); details: 25 °C, 1:1 binding model
Description: The binding affinity between the antigen and the antibody was measured using a BIAcore T200 instrument. The binding strength between the CD47 antigen and the antibody was determined using a CM5 chip (purchased from Cytiva, Cat# 29149603) via amine coupling. First, the CD47 antigen was immobilized onto the CM5 chip. According to the instructions of the Amine Coupling Kit (purchased from Cytiva, Cat# BR100050), using PBST as the running buffer, NHS and EDC were mixed and injected to activate the chip for approximately 420 seconds. The CD47 antigen was diluted to 10 µg/mL in 10 mM sodium acetate (pH 5.5) and injected to achieve an immobilization level of 141.2 RU. Finally, the remaining activated sites were blocked with 1 M ethanolamine (pH 8.5). Subsequently, the affinity of the antibody for the CD47 antigen was determined using the multi-cycle kinetics method. In each cycle, a single concentration of the antibody protein was injected, and the association and dissociation processes between the antibody and the antigen protein were recorded. Finally, the chip was regenerated with Glycine-HCl (pH 1.5). […] Data were analyzed according to a 1:1 binding model, and the kinetic parameters of antibody-antigen binding, including the association rate constant (Ka), dissociation rate constant (Kd), equilibrium dissociation constant (KD), and maximum binding signal (Rmax), were fitted.

[1] = In vivo hematological toxicity, blood cell counting; parameters: species or system hSIRPA/hCD47 (C57 background) mice; details: for PLT Count Mean / RBC Count Mean: 5mg/kg single intraperitoneal dose
Description: hSIRPA/hCD47 (C57 background) mice were randomly divided into 4 groups based on body weight, with 3 mice per group. The hematological toxicity of 70H1.IgG1.Y61C+20K and 70H1.IgG1.Y61C+40K was studied via intraperitoneal injection.
The experimental groups were divided as follows: • 70H1.IgG1.Y61C+20K (5 mg/kg) group, • 70H1.IgG1.Y61C+40K (10 mg/kg) group, • 70H1.IgG1.Y61C+40K (20 mg/kg) group, • 70H1.IgG1.Y61C+40K (30 mg/kg) group.
After grouping, a single dose of the corresponding antibody was administered intraperitoneally to the mice. Blood cell counting was performed on the mice at D0 (pre-dose), D2, D5, D7, D9, and D12.

Raji cells [2] = assay: FACS binding of CD47 antibody to Raji cells
Description: The required cell line, Raji (cultured in RPMI-1640 (ATCC Modification, Gibco, Cat# A10491-01) + 10% FBS (BI, Cat# 04-001-1A) + 1× P/S), was expanded to the logarithmic phase. Cells were collected and pipetted to create a single-cell suspension, followed by centrifugation and removal of the supernatant. The cells were resuspended in FACS buffer (PBS + 2% FBS) and counted, and the cell density was adjusted to 2×10^6/ml. 100 µl/well of this suspension was added to a 96-well plate (Corning, Cat# 3799). After centrifugation and removal of the supernatant, 100 µl/well of the antibody sample to be tested (initial concentration of 100 nM, 5-fold gradient dilutions) was added, mixed with the cells, and incubated at 4 °C for 1 hour. Cells were washed by centrifugation with FACS buffer for three times, then added with 100 µl/well of Goat anti-Human IgG Fc Secondary Antibody, PE (eBioscience™, Invitrogen, Cat# 12-4998-82, 1:200 dilution) and incubated at 4 °C for 1 hour. After three washes with FACS buffer by centrifugation, the cells were resuspended in 200 µl/well of FACS buffer and analyzed using FACS (BECKMAN COULTER, CytoFLEX). Data were fitted and the results were analyzed using software (GraphPad Prism 8).

[3] = tested on: Human red blood cells (RBCs); assay: FACS binding to red blood cells
Description: Human red blood cells (RBCs) (XFB-RBC, 10 ml) were centrifuged, and the supernatant was discarded. The cells were resuspended in FACS buffer (PBS + 2% FBS) and counted, and the cell density was adjusted to 2×10^6/ml. 100 µl/well of this suspension was added to a 96-well plate. After centrifugation and removal of the supernatant, the antibody to be tested (initial concentration of 100 nM, 5-fold gradient dilutions, 8 dilution points) was added at 100 µl/well, mixed with the cells, and incubated at 4 °C for 1 hour. Cells were washed by centrifugation with FACS buffer for three times, then added with 100 µl/well of Goat anti-Human IgG Fc Secondary Antibody, PE (eBioscience™, Invitrogen, Cat# 12-4998-82, 1:200 dilution) and incubated at 4 °C for 1 hour. After three washes with FACS buffer by centrifugation, the cells were resuspended in 200 µl/well of FACS buffer and analyzed using FACS (BECKMAN COULTER, CytoFLEX). Data were fitted and the results were analyzed using software (GraphPad Prism 8).

Raji cells [4] = assay: ADCC assay with PBMCs, LDH detection; assay type: cell-based
Description: Raji cells (cultured in RPMI-1640 (ATCC Modification, Gibco, Cat# A10491-01) + 10% FBS (BI, Cat# 04-001-1A) + 1× P/S) were expanded to the logarithmic phase. Cells were collected and pipetted to create a single-cell suspension. After centrifugation, the supernatant was discarded, and the cells were resuspended in culture medium, counted, and the cell density was adjusted to 2×10^5/ml. 50 µl/well of this suspension was added to a 96-well cell culture plate (Corning, Cat# 3599) and incubated overnight at 37°C in a 5% CO2 atmosphere. PBMCs (XF, Cat# XC11100W) were resuspended in 10% FBS-RPMI1640 medium. After centrifugation, the supernatant was discarded, and the cell density was adjusted to 8×10^6/ml. 50 µl/well of the antibody to be tested and 50 µl of the PBMC suspension (E:T ratio of […]) were added to the culture plate. The plate was placed in a CO2 incubator and incubated for 24 hours. The ADCC assay was performed using an LDH detection kit (Cytotoxicity Detection KitPLUS (LDH), Roche, Cat# 4744934001).

human CD47 antigen, sequence (Q08722 19-323): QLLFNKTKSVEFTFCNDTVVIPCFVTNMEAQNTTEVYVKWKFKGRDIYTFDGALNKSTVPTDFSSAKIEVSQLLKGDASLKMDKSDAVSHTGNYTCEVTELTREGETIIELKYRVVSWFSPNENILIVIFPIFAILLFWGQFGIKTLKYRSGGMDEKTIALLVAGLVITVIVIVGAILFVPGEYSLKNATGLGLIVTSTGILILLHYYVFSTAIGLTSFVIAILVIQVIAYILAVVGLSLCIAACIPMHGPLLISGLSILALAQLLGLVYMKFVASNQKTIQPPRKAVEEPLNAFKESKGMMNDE

B1: CD47 TMEAbody: CD47 TMEAbody conjugated with PEG of approximately 20K molecular weight (i.e., PEG20K) (conjugate)
VH: QQQLEESGGGLVKPEGSLTLTCTASGFSFSSGYDMCWVRQAPGRGLEWIACIYTRSSGGTCYASWAKGRFTISKTSSTVDLRMTSLTAADTATYFCAGGRSSYRLNLWGQGALVTVSS
VL: DVVMTQTPSPVEAAVGGTVTIKCQASQSISNELSWYQQKPGQPPKLLIYRASTLESGVSSRFKGSGSGTEFTLTISDLECADAATYYCQSTFYGDYGNAFGGGTEVVVK
Human CD47 antigen
  Ka: 24400 M⁻¹ s⁻¹
[1]; D0 (pre-dose)
  PLT Count Mean: 1668.33 10^9/L
  RBC Count Mean: 8.53 10^12/L
[1]; D2
  PLT Count Mean: 1406.33 10^9/L
  RBC Count Mean: 6.56 10^12/L
[1]; D5
  PLT Count Mean: 1142.33 10^9/L
  RBC Count Mean: 7.48 10^12/L
[1]; D7
  PLT Count Mean: 1435.33 10^9/L
  RBC Count Mean: 9.62 10^12/L
[1]; D9
  PLT Count Mean: 1356.00 10^9/L
  RBC Count Mean: 9.55 10^12/L
[1]; D12
  PLT Count Mean: 1351.00 10^9/L
  RBC Count Mean: 9.45 10^12/L
[1]; 5 mg/kg, D2 post-administration
  change in red blood cells: reversible decrease in red blood cells
[1]; 5 mg/kg, D5 post-administration
  change in platelets: reversible decrease in platelets
Raji cells [2]
  binding to Raji cells lower compared to 70H1: approximately 60 fold
[3]
  binding to red blood cells: essentially no binding to red blood cells
Raji cells [4]; ADCC, E:T ratio of 20:1, 24 hours
  EC50: 16.3 nM
Raji cells [4]; after the CD47 TMEAbody was activated
  ADCC activity: restored
Raji cells [4]; not activated, compared to the 70H1 antibody
  ADCC activity: lost its ADCC activity
